The target of the experiment is GST-PSD-95 (rat, UniProt P31016 1-724). Kind of experiment: co-IP.

The results in this text go back to PMC3773608 (Journal of molecular neuroscience : MN, 2009).

Chain of GST-PSD-95 (P31016 whole entry): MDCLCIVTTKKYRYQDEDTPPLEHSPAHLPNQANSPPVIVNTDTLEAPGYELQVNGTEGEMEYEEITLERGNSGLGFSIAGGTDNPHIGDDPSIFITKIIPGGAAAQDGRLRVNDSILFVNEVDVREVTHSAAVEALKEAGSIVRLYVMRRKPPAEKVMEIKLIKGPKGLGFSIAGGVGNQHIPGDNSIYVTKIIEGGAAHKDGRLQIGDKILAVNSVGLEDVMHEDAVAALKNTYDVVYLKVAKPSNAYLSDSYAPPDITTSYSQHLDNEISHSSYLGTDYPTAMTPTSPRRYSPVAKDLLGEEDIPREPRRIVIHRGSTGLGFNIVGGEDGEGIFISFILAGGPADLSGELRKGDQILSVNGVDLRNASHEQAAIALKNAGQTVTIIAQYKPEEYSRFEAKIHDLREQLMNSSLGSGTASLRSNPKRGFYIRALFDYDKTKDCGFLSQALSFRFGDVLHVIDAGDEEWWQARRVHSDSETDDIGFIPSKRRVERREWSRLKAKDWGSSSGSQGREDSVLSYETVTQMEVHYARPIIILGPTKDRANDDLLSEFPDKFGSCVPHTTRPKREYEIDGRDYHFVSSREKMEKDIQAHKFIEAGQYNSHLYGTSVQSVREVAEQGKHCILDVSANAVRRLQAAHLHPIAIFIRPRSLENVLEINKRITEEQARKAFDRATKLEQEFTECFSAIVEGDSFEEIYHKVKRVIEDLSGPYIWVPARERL

B1: GST-ILK (enzyme, rat, UniProt Q99J82 1-452, looked up)
chain: MDDIFTQCREGNAVAVRLWLDNTENDLNQGDDHGFSPLHWACREGRSAVVEMLIMRGARINVMNRGDDTPLHLAASHGHRDIVQKLLQYKADINAVNEHGNVPLHYACFWGQDQVAEDLVANGALVSICNKYGEMPVDKAKAPLRELLRERAEKMGQNLNRIPYKDTFWKGTTRTRPRNGTLNKHSGIDFKQLNFLAKLNENHSGELWKGRWQGNDIVVKVLKVRDWSTRKSRDFNEECPRLRIFSHPNVLPVLGACQAPPAPHPTLITHWMPYGSLYNVLHEGTNFVVDQSQAVKFALDMARGMAFLHTLEPLIPRHALNSRSVMIDEDMTARISMADVKFSFQCPGRMYAPAWVAPEALQKKPEDTNRRSADMWSFAVLLWELVTREVPFADLSNMEIGMKVALEGLRPTIPPGISPHVCKLMKICMNEDPAKRPKFDMIVPILEKMQDK
Turning to B1, the binding result is on record as “binds”.
